Experiments:
[1] = target: T1, DEAD-box protein 5 (Dbp5), full length (Saccharomyces cerevisiae, UniProt P20449 1-482); assay: detailed balance of Scheme 3 from measured equilibrium constants
T1 sequence (looked up): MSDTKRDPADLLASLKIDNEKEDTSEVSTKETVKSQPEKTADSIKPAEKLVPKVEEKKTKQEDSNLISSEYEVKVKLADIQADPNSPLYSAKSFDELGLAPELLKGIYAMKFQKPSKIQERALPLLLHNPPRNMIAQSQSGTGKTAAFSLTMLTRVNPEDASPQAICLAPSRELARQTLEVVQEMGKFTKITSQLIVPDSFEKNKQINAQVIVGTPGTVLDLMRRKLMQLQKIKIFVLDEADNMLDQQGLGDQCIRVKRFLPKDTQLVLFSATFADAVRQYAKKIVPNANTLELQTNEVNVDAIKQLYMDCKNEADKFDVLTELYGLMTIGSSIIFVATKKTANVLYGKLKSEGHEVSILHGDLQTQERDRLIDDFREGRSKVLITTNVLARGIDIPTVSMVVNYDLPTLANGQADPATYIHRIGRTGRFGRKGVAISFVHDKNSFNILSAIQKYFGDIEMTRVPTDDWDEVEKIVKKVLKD

[2] = target: T1, DEAD-box protein 5 (Dbp5), full length; assay: as above; remark: listed apart in the source
[3] = target: T1, DEAD-box protein 5 (Dbp5), full length; assay: as above; remark: listed apart in the source
[4] = target: T1, DEAD-box protein 5 (Dbp5), full length; assay: detailed balance of Scheme 1 from measured equilibrium constants
[5] = target: T1, DEAD-box protein 5 (Dbp5), full length; assay: stopped-flow fluorescence

B1: Gle1 (a.a. 244–538), soluble truncated (domain or fragment, Saccharomyces cerevisiae, UniProt Q12315 244-538, looked up)
chain: TNFDKISKMFWHYKDKIAQIKQDIVLPIKKADVNVRNLLSRHKRKINPKFGQLTNSNQQLFKIQNELTQLINDTKGDSLAYHWILNFIAKAVVHQAETEVRVKPESALPLGKLTLYLLVQFPELQELFMARLVKKCPFVIGFTCEIDTEKGRQNMGWKRNNENKWEDNTSYDERMGGILSLFAIITRLQLPQEFITTTSHPFPIALSWHILARICNTPLNLITNTHFVILGSWWDAAAVQFLQAYGNQASKLLILIGEELTSRMAEKKYVGAARLRILLEAWQNNNMESFPEMSP
[1]
  Kd: 500 ± 200 nM
[2]
  Kd: 1.5 ± 0.8 nM
[3]
  Kd: 600 ± 200 nM
[4]
  Kd: 800 ± 300 nM
[5]
  Kd: 170 ± 150 nM

Source: publication PMC9023272 (Nucleic Acids Research, 2022)
